Results: patent publication US10005829B2, “Synthetic linear apelin mimetics for the treatment of heart failure” (priority 2012, dated 2018)
Each block holds one molecule with its values, some of them ahead of it. Where a SMILES comes first, the peptide text is derived from it. [ ]: non-standard residue; d: D form. The star is where a group is joined. Pro(trans-4-Ph) = O=C(O)[C@@H]1C[C@@H](c2ccccc2)CN1; Cha = N[C@@H](CC1CCCCC1)C(=O)O; pGlu = O=C1CC[C@@H](C(=O)O)N1; dNle = CCCC[C@@H](N)C(=O)O; dNva = CCC[C@@H](N)C(=O)O; Bn = c1ccc(C*)cc1

Assays:
[1] = Surrogate activity-based plasma stability assay; type: in vitro ADME; details: 5% rat plasma, 37° C., EC50 at t0 and t24 hrs; Table 2
Procedure: • Stability assay: stability half-life, (t ½), values were determined by converting peak areas at each time point to percent remaining relative to initial (t=0) peak area. Percent remaining=100×(sample peak area)÷(t=0 peak area) • The natural log of percent remaining values were calculated and plotted against sample time (Microsoft Excel). The slope of this line, k, was determined by linear regression (Microsoft Excel). • Stability half-life was then calculated by the formula, t ½=0.693÷k Surrogate Activity-based Plasma Stability Assay:
The calcium flux protocol described above was followed, with the following changes. The peptides were also incubated with 5% rat plasma (Bioreclamation # [sequence]-M, Na Heparin-treated). Readings were taken at time points t0 and t24 hrs, after incubation in a 37° C. tissue culture incubator. Peptide plasma half-life in minutes was estimated by calculating the following:

APJ receptor = target: T1, APJ receptor (human, UniProt P35414 1-380); test: cell-based or functional assay
T1 sequence (looked up): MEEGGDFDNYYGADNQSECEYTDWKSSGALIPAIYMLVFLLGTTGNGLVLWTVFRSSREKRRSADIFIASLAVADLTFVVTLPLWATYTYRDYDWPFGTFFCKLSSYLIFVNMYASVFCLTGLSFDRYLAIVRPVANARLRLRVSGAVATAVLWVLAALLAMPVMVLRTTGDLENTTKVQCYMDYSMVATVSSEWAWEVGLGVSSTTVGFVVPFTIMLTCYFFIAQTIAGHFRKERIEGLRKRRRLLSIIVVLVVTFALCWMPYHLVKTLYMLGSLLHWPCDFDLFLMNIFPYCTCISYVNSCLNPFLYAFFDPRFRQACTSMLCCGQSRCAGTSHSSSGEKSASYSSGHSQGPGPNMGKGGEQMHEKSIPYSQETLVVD

Molecule: CCCC[C@@H](NC(=O)[C@@H]1CCCN1C(=O)CNC(=O)[C@H](CCCCN)NC(=O)[C@H](Cc1c[nH]cn1)NC(=O)[C@@H](C)NC(=O)[C@H](Cc1ccc(OCc2ccccc2)cc1)NC(=O)[C@H](CCCNC(=N)N)NC(=O)[C@@H]1CCCN1C(=O)[C@H](CCCNC(=N)N)NC(=O)[C@@H]1CCC(=O)N1)C(=O)N[C@H](C)C(=O)N[C@H](Cc1ccccc1)C(=O)O [Example 27, pE-R-P-R-Y(Bzl)-a-H-K-G-P-nle-a-f-OH] ([pGlu]RPRY(Bn)[dA]HKGP[dNle][dA][dF]-OH)
Surrogate activity-based Plasma stability t½ [1]: 5.815 h

hAPJ Ca^2+ Flux EC50 (APJ receptor): 9.9 nM
B1: pE-R-(trans-4-PhP)-R-L-a-H-K-G-P-nle-a-f-OH (peptide)
peptide: [pGlu]R[Pro(trans-4-Ph)]RL[dA]HKGP[dNle][dA][dF]-OH

hAPJ Ca^2+ Flux EC50 (APJ receptor): 7.7 nM
B2: pE-R-P-R-L-d-H-K-G-P-nle-a-f-OH (peptide)
peptide: [pGlu]RPRL[dD]HKGP[dNle][dA][dF]-OH
SMILES: CCCC[C@@H](NC(=O)[C@@H]1CCCN1C(=O)CNC(=O)[C@H](CCCCN)NC(=O)[C@H](Cc1c[nH]cn1)NC(=O)[C@@H](CC(=O)O)NC(=O)[C@H](CC(C)C)NC(=O)[C@H](CCCNC(=N)N)NC(=O)[C@@H]1CCCN1C(=O)[C@H](CCCNC(=N)N)NC(=O)[C@@H]1CCC(=O)N1)C(=O)N[C@H](C)C(=O)N[C@H](Cc1ccccc1)C(=O)O

hAPJ Ca^2+ Flux EC50 (APJ receptor): 693 nM
B3: pE-R-P-R-L-c(tBu)-H-K-G-P-nle-a-f-OH (peptide)
peptide: [pGlu]RPRL[dCys(tBu)]HKGP[dNle][dA][dF]-OH

hAPJ Ca^2+ Flux EC50 (APJ receptor): 9.4 nM
B4: pE-R-P-R-Cha-nva-H-K-G-P-nle-a-f-OH (peptide)
peptide: [pGlu]RPR[Cha][dNva]HKGP[dNle][dA][dF]-OH
SMILES: CCCC[C@@H](NC(=O)[C@@H]1CCCN1C(=O)CNC(=O)[C@H](CCCCN)NC(=O)[C@H](Cc1c[nH]cn1)NC(=O)[C@@H](CCC)NC(=O)[C@H](CC1CCCCC1)NC(=O)[C@H](CCCNC(=N)N)NC(=O)[C@@H]1CCCN1C(=O)[C@H](CCCNC(=N)N)NC(=O)[C@@H]1CCC(=O)N1)C(=O)N[C@H](C)C(=O)N[C@H](Cc1ccccc1)C(=O)O
